Holding throughout (conditions): both partners purified
Test [1] has as its target T1, monocyte chemo-attractant protein-1 (MCP-1) (Homo sapiens (Human)., UniProt P13500).
T1 construct: MCP-1 (monocyte chemo-attractant protein-1), chemokine; synthetic gene optimised for E. coli in pET26b; Probably the mature human chemokine, as in PDB 2BDN; also called monocyte chemotactic protein-1; antigen; source: E. coli Rosetta2 (DE3), purified (Ni-NTA, SEC)
Description: SPR; temperature dependence of KD, van't Hoff approximation; MCP-1 immobilised, scFv injected. (SPR reads the build-up and loss of mass on a sensor chip optically.)

The target of test [2] is T1, monocyte chemo-attractant protein-1 …. Description: SPR; Biacore T200; MCP-1 immobilised on a CM5 chip by amine coupling (~220 RU), scFv injected at 30 µl/min; PBS with 0.005% Tween-20; 25°C; global fit, 1:1 Langmuir model; KD from koff/kon.
Test [3] shares this target. Description: SPR; ionic strength series: MCP-1 immobilised, scFv injected; running buffer with 137 mM NaCl; 25°C.
The target is the same in test [4]. Description: SPR; ionic strength series: MCP-1 immobilised, scFv injected; running buffer with 500 mM NaCl; 25°C.

B1: wild-type 11K2 scFv (scFv, V domains shown)
VH: EVQLQQSGAELVKAGASVKLSCPASGLNIKDTYMHWVKQRPEQGLEWIGRIDPANGNTKFDPKFQGKATITADTSSNTAYLQLSSLTSEDTAVYYCARGVFGFFDYWGQGTTLTVSS
VL: DIQMTQSSSSFSVSLGDRVTITCKATEDIYNRLAWYQQKPGSAPRLLISGATSLETGVPSRFSGSGSGKDYTLSITSLQTEDVATYYCQQFWSAPYTFGGGTKLEIK
notes: VH of antibody 11K2; also the variable domain of the heavy chain of the 11K2 Fab in PDB 2BDN; linker of the scFv; VL of antibody 11K2; also the variable domain of the light chain of the 11K2 Fab in PDB 2BDN; also called WT; scFv 11K2
In the case of B1, the dH in test [1] is -7.3 kcal/mol. In addition, in test [2], the Kd amounted to 0.8 nM, the koff came out at 0.0001 s⁻¹ and the kon stood at 140000 M⁻¹ s⁻¹.

B2: 11K2 scFv mutein H-N28Q (scFv, V domains shown)
VH: EVQLQQSGAELVKAGASVKLSCPASGLQIKDTYMHWVKQRPEQGLEWIGRIDPANGNTKFDPKFQGKATITADTSSNTAYLQLSSLTSEDTAVYYCARGVFGFFDYWGQGTTLTVSS
VL: DIQMTQSSSSFSVSLGDRVTITCKATEDIYNRLAWYQQKPGSAPRLLISGATSLETGVPSRFSGSGSGKDYTLSITSLQTEDVATYYCQQFWSAPYTFGGGTKLEIK
notes: PDB 2BDN heavy chain) with the stated change; PDB 2BDN light chain)
In test [2], B2 had a Kd of 8.5 nM, a dissociation rate constant (koff) of 0.0019 s⁻¹ and an on-rate (kon) of 220000 M⁻¹ s⁻¹.

B3: 11K2 scFv mutein L-S53E (scFv, V domains shown)
VH: EVQLQQSGAELVKAGASVKLSCPASGLNIKDTYMHWVKQRPEQGLEWIGRIDPANGNTKFDPKFQGKATITADTSSNTAYLQLSSLTSEDTAVYYCARGVFGFFDYWGQGTTLTVSS
VL: DIQMTQSSSSFSVSLGDRVTITCKATEDIYNRLAWYQQKPGSAPRLLISGATELETGVPSRFSGSGSGKDYTLSITSLQTEDVATYYCQQFWSAPYTFGGGTKLEIK
notes: PDB 2BDN heavy chain; PDB 2BDN light chain) with the stated change
The molecule B3 had a dH in test [1] of -15.1 kcal/mol. Moreover, in test [2], the affinity, expressed as Kd, was 0.19 nM; the koff amounted to 1.4e-05 s⁻¹; the kon was 73000 M⁻¹ s⁻¹.

B4: 11K2 scFv mutein L-T56D (scFv, V domains shown)
VH: EVQLQQSGAELVKAGASVKLSCPASGLNIKDTYMHWVKQRPEQGLEWIGRIDPANGNTKFDPKFQGKATITADTSSNTAYLQLSSLTSEDTAVYYCARGVFGFFDYWGQGTTLTVSS
VL: DIQMTQSSSSFSVSLGDRVTITCKATEDIYNRLAWYQQKPGSAPRLLISGATSLEDGVPSRFSGSGSGKDYTLSITSLQTEDVATYYCQQFWSAPYTFGGGTKLEIK
notes: as for B3
Consider B4, for which the dH in test [1] is -11.7 kcal/mol. Besides, in test [2], the affinity, expressed as Kd, was 0.39 nM; the off-rate (koff) was found to be 8.6e-05 s⁻¹; the kon was determined as 220000 M⁻¹ s⁻¹.

B5: 11K2 scFv mutein L-N31K (scFv, V domains shown)
VH: EVQLQQSGAELVKAGASVKLSCPASGLNIKDTYMHWVKQRPEQGLEWIGRIDPANGNTKFDPKFQGKATITADTSSNTAYLQLSSLTSEDTAVYYCARGVFGFFDYWGQGTTLTVSS
VL: DIQMTQSSSSFSVSLGDRVTITCKATEDIYKRLAWYQQKPGSAPRLLISGATSLETGVPSRFSGSGSGKDYTLSITSLQTEDVATYYCQQFWSAPYTFGGGTKLEIK
notes: PDB 2BDN heavy chain; PDB 2BDN light chain) with the stated change; also called L-D31K (printed once in the results)
In test [2], B5 displayed a Kd of 290 nM, a koff of 0.098 s⁻¹ and a kon of 340000 M⁻¹ s⁻¹.

B6: 11K2 scFv mutein L-S53D (scFv, V domains shown)
VH: EVQLQQSGAELVKAGASVKLSCPASGLNIKDTYMHWVKQRPEQGLEWIGRIDPANGNTKFDPKFQGKATITADTSSNTAYLQLSSLTSEDTAVYYCARGVFGFFDYWGQGTTLTVSS
VL: DIQMTQSSSSFSVSLGDRVTITCKATEDIYNRLAWYQQKPGSAPRLLISGATDLETGVPSRFSGSGSGKDYTLSITSLQTEDVATYYCQQFWSAPYTFGGGTKLEIK
notes: as for B3
In turn, B6 registered a dH in test [1] of -13.3 kcal/mol. In test [2], binding was characterised by a dissociation constant (Kd) of 0.61 nM, the koff is 5.5e-05 s⁻¹ and the on-rate (kon) is 90000 M⁻¹ s⁻¹.

B7: 11K2 scFv mutein L-T56E (scFv, V domains shown)
VH: EVQLQQSGAELVKAGASVKLSCPASGLNIKDTYMHWVKQRPEQGLEWIGRIDPANGNTKFDPKFQGKATITADTSSNTAYLQLSSLTSEDTAVYYCARGVFGFFDYWGQGTTLTVSS
VL: DIQMTQSSSSFSVSLGDRVTITCKATEDIYNRLAWYQQKPGSAPRLLISGATSLEEGVPSRFSGSGSGKDYTLSITSLQTEDVATYYCQQFWSAPYTFGGGTKLEIK
notes: as for B3
B7 yielded a dH in test [1] of -14.5 kcal/mol. In test [2], this molecule gave a dissociation constant Kd of 0.25 nM, a koff of 2.6e-05 s⁻¹ and a kon of 100000 M⁻¹ s⁻¹.

B8: 11K2 scFv mutein H-L27R (scFv, V domains shown)
VH: EVQLQQSGAELVKAGASVKLSCPASGRNIKDTYMHWVKQRPEQGLEWIGRIDPANGNTKFDPKFQGKATITADTSSNTAYLQLSSLTSEDTAVYYCARGVFGFFDYWGQGTTLTVSS
VL: DIQMTQSSSSFSVSLGDRVTITCKATEDIYNRLAWYQQKPGSAPRLLISGATSLETGVPSRFSGSGSGKDYTLSITSLQTEDVATYYCQQFWSAPYTFGGGTKLEIK
notes: as for B2
In test [2], B8 displayed an equilibrium dissociation constant (Kd) of 2.4 nM, an off-rate (koff) of 0.00033 s⁻¹ and an association rate constant (kon) of 140000 M⁻¹ s⁻¹.

B9: 11K2 scFv mutein L-Y30K (scFv, V domains shown)
VH: EVQLQQSGAELVKAGASVKLSCPASGLNIKDTYMHWVKQRPEQGLEWIGRIDPANGNTKFDPKFQGKATITADTSSNTAYLQLSSLTSEDTAVYYCARGVFGFFDYWGQGTTLTVSS
VL: DIQMTQSSSSFSVSLGDRVTITCKATEDIKNRLAWYQQKPGSAPRLLISGATSLETGVPSRFSGSGSGKDYTLSITSLQTEDVATYYCQQFWSAPYTFGGGTKLEIK
notes: as for B3
For B9, in test [2], the affinity, expressed as Kd, was 2.5 nM; the off-rate constant (koff) came to 0.00031 s⁻¹; the association rate constant (kon) turned out to be 130000 M⁻¹ s⁻¹.

B10: 11K2 scFv mutein H-L27K (scFv, V domains shown)
VH: EVQLQQSGAELVKAGASVKLSCPASGKNIKDTYMHWVKQRPEQGLEWIGRIDPANGNTKFDPKFQGKATITADTSSNTAYLQLSSLTSEDTAVYYCARGVFGFFDYWGQGTTLTVSS
VL: DIQMTQSSSSFSVSLGDRVTITCKATEDIYNRLAWYQQKPGSAPRLLISGATSLETGVPSRFSGSGSGKDYTLSITSLQTEDVATYYCQQFWSAPYTFGGGTKLEIK
notes: as for B2
As to B10, in test [2], the Kd amounted to 3.5 nM, the off-rate constant (koff) was 0.00039 s⁻¹ and the on-rate (kon) came to 110000 M⁻¹ s⁻¹.

B11: 11K2 scFv mutein L-N31R (scFv, V domains shown)
VH: EVQLQQSGAELVKAGASVKLSCPASGLNIKDTYMHWVKQRPEQGLEWIGRIDPANGNTKFDPKFQGKATITADTSSNTAYLQLSSLTSEDTAVYYCARGVFGFFDYWGQGTTLTVSS
VL: DIQMTQSSSSFSVSLGDRVTITCKATEDIYRRLAWYQQKPGSAPRLLISGATSLETGVPSRFSGSGSGKDYTLSITSLQTEDVATYYCQQFWSAPYTFGGGTKLEIK
notes: PDB 2BDN heavy chain; PDB 2BDN light chain) with the stated change; also called L-D31R (printed once in the results)
For the molecule B11, in test [3], the Kd is 0.36 nM and the on-rate (kon) was found to be 170000 M⁻¹ s⁻¹. Besides, in test [1], the dH was -25.6 kcal/mol. In test [4], this molecule displayed a Kd of 0.47 nM. In test [2], this molecule registered a dissociation constant (Kd) of 0.17 nM, an off-rate (koff) of 2.2e-05 s⁻¹ and a kon of 130000 M⁻¹ s⁻¹.

B12: 11K2 scFv mutein H-D31E (scFv, V domains shown)
VH: EVQLQQSGAELVKAGASVKLSCPASGLNIKETYMHWVKQRPEQGLEWIGRIDPANGNTKFDPKFQGKATITADTSSNTAYLQLSSLTSEDTAVYYCARGVFGFFDYWGQGTTLTVSS
VL: DIQMTQSSSSFSVSLGDRVTITCKATEDIYNRLAWYQQKPGSAPRLLISGATSLETGVPSRFSGSGSGKDYTLSITSLQTEDVATYYCQQFWSAPYTFGGGTKLEIK
notes: as for B2
For B12, in test [2], the Kd is 5 nM, the koff came to 0.00015 s⁻¹ and the on-rate constant (kon) turned out to be 30000 M⁻¹ s⁻¹.

By Kd is commonly meant the free concentration of one partner at which half of the binding sites on the other are occupied at equilibrium, for simple one-to-one binding. In general, koff refers to a measure of how fast the partners let go of each other. Read a low koff as slow dissociation. One may read the kon as the second-order rate constant of association. A lower kon goes with slower complex formation.

For the origin of these results see paper PMC3903617 (PLoS ONE, 2014).
